T1: human MICA ECD (human, UniProt Q29983 24-307)
T1 construct: extracellular domain
T1 sequence (looked up): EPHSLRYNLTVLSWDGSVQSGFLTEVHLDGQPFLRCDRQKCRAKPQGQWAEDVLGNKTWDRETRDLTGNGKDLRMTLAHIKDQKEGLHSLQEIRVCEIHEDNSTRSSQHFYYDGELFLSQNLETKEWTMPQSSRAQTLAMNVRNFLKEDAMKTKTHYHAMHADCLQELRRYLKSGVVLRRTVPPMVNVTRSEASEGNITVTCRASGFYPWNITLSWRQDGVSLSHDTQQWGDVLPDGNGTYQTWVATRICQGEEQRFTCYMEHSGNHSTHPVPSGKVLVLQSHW


What was measured:
Human PDGFRb ECD [1] = biological target: T2, Human PDGFRb ECD (human, UniProt P09619 33-532); assay: ELISA on human PDGFRb ECD, luminescence
T2 construct: extracellular domain; also called recombinant extracellular domain of PDGFRb
T2 sequence (P09619 33-532): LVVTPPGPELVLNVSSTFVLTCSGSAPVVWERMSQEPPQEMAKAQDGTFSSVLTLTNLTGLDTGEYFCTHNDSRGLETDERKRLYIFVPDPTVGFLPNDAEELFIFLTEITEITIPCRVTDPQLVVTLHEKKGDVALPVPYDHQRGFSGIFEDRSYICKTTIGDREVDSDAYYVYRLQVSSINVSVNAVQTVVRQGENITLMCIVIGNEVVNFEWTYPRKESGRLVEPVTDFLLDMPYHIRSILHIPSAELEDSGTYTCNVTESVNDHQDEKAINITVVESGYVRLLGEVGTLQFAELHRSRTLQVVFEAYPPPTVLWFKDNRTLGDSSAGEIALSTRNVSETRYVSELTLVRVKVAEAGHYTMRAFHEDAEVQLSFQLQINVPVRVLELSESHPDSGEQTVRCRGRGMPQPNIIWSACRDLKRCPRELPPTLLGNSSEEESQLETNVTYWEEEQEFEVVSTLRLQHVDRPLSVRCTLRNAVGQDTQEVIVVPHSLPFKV

human MICA ECD = biological target: T1, human MICA ECD; assay: ELISA on human MICA ECD, luminescence
Human PDGFRb ECD [2] = biological target: T2, Human PDGFRb ECD; assay: direct ELISA on coated recombinant ECD (30 ng/well), HRP-conjugated secondary antibody, luminescence
Experimental: (§1) Briefly, recombinant extracellular domain of PDGFRb, FAPα, ULBP1, uPAR, IGF1R, SIRPA, PD-L1, ANTXR1, CD248, or GPC3 (30 ng/well) was coated on white optiplate™-384 well HB plate. After overnight coating, standard direct ELISA assay was performed. Luminescence signal was detected after using secondary antibody with HRP conjugated. Binding activity of each antibody was determined based on dose dependent binding curve.

human GPC3 ECD = biological target: T3, human GPC3 ECD (human, UniProt P51654 25-559, limits assumed); assay: as above
T3 construct: extracellular domain; also called recombinant extracellular domain of GPC3
T3 sequence (P51654 25-559 limits assumed): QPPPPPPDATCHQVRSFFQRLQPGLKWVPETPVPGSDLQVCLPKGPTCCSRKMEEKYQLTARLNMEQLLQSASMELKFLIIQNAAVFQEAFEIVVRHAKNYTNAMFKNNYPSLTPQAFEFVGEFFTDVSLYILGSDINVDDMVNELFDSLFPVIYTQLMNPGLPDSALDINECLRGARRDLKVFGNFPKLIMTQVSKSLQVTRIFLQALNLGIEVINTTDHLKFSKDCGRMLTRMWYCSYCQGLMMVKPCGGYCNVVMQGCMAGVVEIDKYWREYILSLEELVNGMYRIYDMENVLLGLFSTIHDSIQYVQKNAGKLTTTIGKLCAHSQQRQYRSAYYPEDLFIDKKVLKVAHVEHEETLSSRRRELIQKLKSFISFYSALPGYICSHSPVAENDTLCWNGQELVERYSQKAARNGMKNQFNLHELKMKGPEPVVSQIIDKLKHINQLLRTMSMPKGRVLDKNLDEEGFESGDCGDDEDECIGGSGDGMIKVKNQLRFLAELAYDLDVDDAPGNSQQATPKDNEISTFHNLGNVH
Experimental: as §1

| EC50 (read off the curve) (Human PDGFRb ECD [1]) [µg/mL] | binding result (human MICA ECD) | EC50 (read off the curve) (Human PDGFRb ECD [2]) [µg/mL] | EC50 (read off the curve) (human GPC3 ECD) [µg/mL] | Binder |
| --- | --- | --- | --- | --- |
| ~0.02 | binds |  |  | α-PDGFRb 1-NKG2D KIH S239D/1332E (bispecific antibody, human IgG1, kappa, The Fc carries S239D/I332E; also called α-PDGFRb 1-NKG2D KIH S239D/I332E; knob-into-hole bispecific antibody) heavy: QVQLQESGPGLVKPSETLSLTCTVSGFSLTNYAINWVRQPPGKGLEWLGIIWTGGGTSYNSALKSRLTISKDTSKNQVSLKLSSVTAADTAVYYCARTGTRGYFFDYWGQGTLVTVSSASTKGPSVFPLAPSSKSTSGGTAALGCLVKDYFPEPVTVSWNSGALTSGVHTFPAVLQSSGLYSLSSVVTVPSSSLGTQTYICNVNHKPSNTKVDKKVEPKSCDKTHTCPPCPAPELLGGPDVFLFPPKPKDTLMISRTPEVTCVVVDVSHEDPEVKFNWYVDGVEVHNAKTKPREEQYNSTYRVVSVLTVLHQDWLNGKEYKCKVSNKALPAPEEKTISKAKGQPREPQVCTLPPSREEMTKNQVSLSCAVKGFYPSDIAVEWESNGQPENNYKTTPPVLDSDGSFFLVSKLTVDKSRWQQGNVFSCSVMHEALHNHYTQKSLSLSPGK FLNSLFNQEVQIPLTESYCGPCPKNWICYKNNCYQFFDESKNWYESQASCMSQNASLLKVYSKEDQDLLKLVKSYHWMGLVHIPTNGSWQWEDGSILSPNLLTIIEMQKGDCALYASSFKGYIENCSTPNTYICMQRTVGGSGGGSGFLNSLFNQEVQIPLTESYCGPCPKNWICYKNNCYQFFDESKNWYESQASCMSQNASLLKVYSKEDQDLLKLVKSYHWMGLVHIPTNGSWQWEDGSILSPNLLTIIEMQKGDCALYASSFKGYIENCSTPNTYICMQRTVGGGGSGGGGSGGGGSGGGGSPKSSDKTHTCPPCPAPELLGGPDVFLFPPKPKDTLMISRTPEVTCVVVDVSHEDPEVKFNWYVDGVEVHNAKTKPREEQYNSTYRVVSVLTVLHQDWLNGKEYKCKVSNKALPAPEEKTISKAKGQPREPQVYTLPPCRDELTKNQVSLWCLVKGFYPSDIAVEWESNGQPENNYKTTPPVLDSDGSFFLYSKLTVDKSRWQQGNVFSCSVMHEALHNHYTQKSLSLSPGK light: not shown |
| ~0.02 |  | ~0.03 |  | α-PDGFRb 1 S239D/1332E (antibody, human IgG1, kappa, V domains shown, also called α-PDGFRb 1 S239D/I332E; exemplary anti-PDGFRb antibody (α-PDGFRb 1)) VH: QVQLQESGPGLVKPSETLSLTCTVSGFSLTNYAINWVRQPPGKGLEWLGIIWTGGGTSYNSALKSRLTISKDTSKNQVSLKLSSVTAADTAVYYCARTGTRGYFFDYWGQGTLVTVSS VL: DIQMTQSPSSLSASVGDRVTITCHASQNINVWLSWYQQKPGKAPKLLIYKASNLHTGVPSRFSGSGSGTGFTLTISSLQPEDIATYYCQQGQSFPFTFGGGTKVEIKR |
|  |  |  | ~0.02 | α-GPC3 1 mIgG2a S239D/1332E (antibody, V domains shown, mIgG2a with S239D/I332E; also called α-GPC3 1 mIgG2a S239D/I332E; exemplary anti-GPC3 antibody (α-GPC3 1)) VH: QVQLQQSGAELVRPGASVKLSCKASGYTFTDYEMHWVKQTPVHGLKWIGALDPKTGDTAYSQKFKGKATLTADKSSSTAYMELRSLTSEDSAVYYCTRFYSYTYWGQGTLVTVSA VL: DVVMTQTPLSLPVSLGDQASISCRSSQSLVHSNGNTYLHWYLQKPGQSPKLLIYKVSNRFSGVPDRFSGSGSGTDFTLKISRVEAEDLGVYFCSQNTHVPPTFGSGTKLEIKR |
